Reference: publication PMC7463542, “Automated GMP-Compliant Production of [^68Ga]Ga-DO3A-Tuna-2 for PET Microdosing Studies of the Glucagon Receptor in Humans” (Pharmaceuticals, 2020)

How the values were obtained:
[1] = Storage stability of the aqueous precursor solution at −20 °C (formation of oxidized product); format: physicochemical; settings: at least six months
[2] = Safety, pharmacology, and toxicology studies in animals; format: in vivo
[3] = format: physicochemical
Procedure: The aseptic production was conducted in a GMP grade A workstation (unidirectional laminar airflow workbench (LAFW)) situated in a cleanroom with GMP grade B air quality. The ^68Ge/^68Ga generator (GalliaPharm®, Eckert & Ziegler, Berlin, Germany) and Modular PharmLab labeling synthesis platform (Eckert & Ziegler Eurotope, Berlin, Germany) were placed in the LAFW. A high-performance liquid chromatography system (LaChrom, Hitachi, VWR) consisting of an L-2130 pump, UV detector (L-2400), and radiation flow detector (Bioscan) coupled in series was used for product quality control. Separation of the analytes was accomplished using an analytical column with a stationary reversed phase (C-4; Vydac-C4; 50 × 4.6 mm; particle size: 3 µm). The conditions were as follows: A = 10 mM trifluoroacetic acid in water; B = 100% acetonitrile (MeCN) with 10 mM TFA with UV-detection at 220 nm; linear gradient elution: 0 min at 24% B, 0–8 min from 24 to 45% B, 8–10 min at 45% B, 10–15 min at 24% B; flow rate was 2.0 mL/min. Data acquisition and handling were performed using the EZChrom Elite Software Package (version 1.3).
Quality control on the chemical purity, radiochemical purity, and determination of the peptide concentration was performed using UV-Radio-HPLC. The development and validation of the method were conducted using two different reversed-phase columns Vydac-C4 and Aeris-C4 with mobile phases of 0.1% TFA in water as the A mobile phase and 0.1% TFA in acetonitrile as the B mobile phase. The gradient of B increased from 25% to 40% within 30 min for Aeris-4 and B increased from 24 to 45% within 8 min, followed by 2 min of isocratic elution. The recovery of radioactivity from the analytical column was investigated, in order to confirm that no radioactive product or impurities were left on the column, by collecting HPLC effluent with and without an analytical column and measuring the radioactivity. The tests were performed for both the product ([^68Ga]Ga-DO3A-VS-Cys^40-Tuna-2) and free ^68Ga(III). Specificity, linearity, and precision as repeatability were validated for both UV- and radio-detectors.
Three successful sequential productions were performed for the manufacturing validation. A fraction of pre-determined volume was kept for the subsequent determination of ^68Ge content and solvent residual content. The stability of the product at room temperature was monitored by UV-radio-HPLC for 2 h.

[4] = Sensitivity of the labelled product to (radiolytic) oxidation; format: physicochemical; settings: compared with [^68Ga]Ga-DO3A-VS-Cys^40-Exendin-4; labeling conditions
[5] = biological target: T1, glucagon receptor (GCGR) (Homo sapiens, UniProt P47871); format: in vivo, humans
T1 construct: strong liver uptake expected due to the high glucagon receptor expression on hepatocytes; from tissue; host or cells: liver (hepatocytes) of living human subjects with type 2 diabetes
Excerpt: [^68Ga]Ga-DO3A-VS-Cys^40-Tuna-2 PET/CT was used for assessing the hepatic GCGR receptor density and availability within a phase Ib, open-label study investigating the receptor occupancy of a dual GLP1/GCG agonist (ClinicalTrials.gov: NCT03350191). The results of the full receptor occupancy study, as well as the human biodistribution and dosimetry of [^68Ga]Ga-DO3A-VS-Cys^40-Tuna-2, will be reported separately. The study was approved by the Swedish Medical Products Agency and the regional ethical review board (Dnr 2017/395; EudraCT nr. 2017-001789-23).
Briefly, individuals with T2D were enrolled in the study and signed informed consent. They (n = 13) were placed in the supine position with the liver in the 20 cm axial PET field of view of a Discovery MI PET/CT scanner (GE Healthcare). [^68Ga]Ga-DO3A-VS-Cys^40-Tuna-2 (target dose 0.5 MBq/kg, <0.2 µg/kg peptide) was administered intravenously as a bolus followed by a 60 min dynamic PET acquisition in list-mode. The PET list mode data were reconstructed into 30 frames (12 × 10, 6 × 30, 5 × 120, 5 × 300, 2 × 600 s) using an iterative VPFX-S algorithm (3 iterations, 3 subsets, matrix 256 × 256, Z-axis post-filter 3 mm) with all relevant corrections performed.

[6] = system: glucagon receptor (GCGR); settings: in vitro and in vivo in rats and non-human primates; 16 (previous studies); cited from earlier work
Excerpt: The manufacturing process of [^68Ga]Ga-DO3A-VS-Cys^40-Tuna-2 was automated for clinical use to meet the radiation safety and good manufacturing practice (GMP) requirements. Methods: The automated synthesis platform (Modular-Lab PharmTrace, Eckert & Ziegler, E ...

T1 sequence (P47871 26-477): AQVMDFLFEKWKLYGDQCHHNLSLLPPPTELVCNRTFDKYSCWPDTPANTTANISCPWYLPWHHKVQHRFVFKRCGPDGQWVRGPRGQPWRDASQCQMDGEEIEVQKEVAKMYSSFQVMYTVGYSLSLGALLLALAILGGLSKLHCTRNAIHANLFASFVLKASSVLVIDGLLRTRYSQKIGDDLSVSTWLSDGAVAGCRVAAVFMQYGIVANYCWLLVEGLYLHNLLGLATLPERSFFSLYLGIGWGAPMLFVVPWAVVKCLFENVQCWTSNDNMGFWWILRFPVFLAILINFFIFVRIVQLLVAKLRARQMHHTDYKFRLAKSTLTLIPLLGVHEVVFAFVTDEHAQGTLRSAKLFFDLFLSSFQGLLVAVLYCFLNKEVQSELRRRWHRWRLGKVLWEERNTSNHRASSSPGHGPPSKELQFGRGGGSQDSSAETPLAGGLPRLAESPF

## TzaD-SerQGTFTSDYSKQLDE*QRAK*EFIEWLLATGPESGAPPPS (sidechain bridge or staple) [DO3A-VS-Cys^40-Tuna-2, unlabelled precursor (GMP-grade API starting material): Tuna-2 peptide coupled to DOTA bifunctional chelator via Cys40 and vinyl sulfone linker]
[1]
  Formation of oxidized product upon storage: no formation of the oxidized product was detected
[2]
  Toxicity related to the substance: no DO3A-VS-Cys^40-Tuna-2 related toxicity

## TzaD-SerQGTFTSDYSKQLDE*QRAK*EFIEWLLATGPESGAPPPS (sidechain bridge or staple) [[^68Ga]Ga-DO3A-VS-Cys^40-Tuna-2, ^68Ga-labeled peptide-based PET imaging agent targeting GCGR; 39-residue Tuna-2 coupled to DOTA chelator via Cys40 and vinyl sulfone linker]
[3]
  Stability: radiochemical purity 2 h postproduction: 97.9 ± 0.9%
[3]; ambient temperature, Figure 5, as stated in discussion
  RCP at ambient temperature for at least 2 h: over 95%
[3]; formulated product, ambient temperature, UV-radio-HPLC
  Time for which the product was stable at ambient temperature: at least 2 h
[3]; formulated product, room temperature, radioactivity traces of Figure 5
  Radiochemical purity (RCP) after production, 1 h and 2 h post-production: over 98%
[4]
  Sensitivity to oxidation: less sensitive to the oxidation
[5]; T2D patients, IV bolus, baseline examinations, 60 min dynamic PET
  Binding in the liver: strong binding in the liver
[5]; in vivo, iv
  Plasma kinetics: rapid plasma kinetics
[6]
  Binding to the glucagon receptor (GCGR): high-affinity specific binding
